Results as given in PMC11480083.
Residue numbers refer to the chain shown, from its start. Numbers in names are those of the source.

Legend:
[1] = system: O=C(c1ccc(O)cc1O)c1ccc(O)cc1O; assay: purified protein; settings: 4 mM UDP-Glc, 100 mM Kpi pH 8.0, 30 °C
[2] = substrate: O=C(c1ccc(O)cc1O)c1ccc(O)cc1O; assay: steady-state kinetics, HPLC; type: biochemical, Gardenia jasminoides; settings: UDP-Glc donor
purified protein = substrate: O=C(c1ccc(O)cc1O)c1ccc(O)cc1O; assay: purified protein
[3] = substrate: O=C(c1ccc(O)cc1O)c1ccc(O)cc1O; assay: steady-state kinetics, HPLC; type: biochemical, Citrus japonica; settings: UDP-Glc donor
[4] = substrate: O=C(c1ccc(O)cc1O)c1ccc(O)cc1O; assay: steady-state kinetics, HPLC; type: biochemical, Nelumbo nucifera; settings: UDP-Glc donor

## MiCGT (Mangifera indica)
[1]
  Km: 0.430 ± 0.155 mM
  kcat: 0.509 ± 0.088 min⁻¹

## MiCGT (Mangifera indica; E152Q)
[1]
  Km: 0.176 ± 0.025 mM

## MiCGT (Mangifera indica; E152Q/S122P/V190D)
[1]
  Km: 0.036 ± 0.003 mM
  kcat: 9.473 ± 0.103 min⁻¹

## MiCGT (Mangifera indica; E152Q/V190D)
[1]
  Km: 0.189 ± 0.021 mM

## MiCGT (Mangifera indica; M148A)
[1]
  Km: 0.269 ± 0.049 mM

## MiCGT (Mangifera indica; M148A/S121D/V190T)
[1]
  Km: 0.249 ± 0.030 mM
  kcat: 30.686 ± 0.942 min⁻¹

## MiCGT (Mangifera indica; M148A/V190T)
[1]
  Km: 0.317 ± 0.1 mM

B1: GjGTa (Gardenia jasminoides; A142M/F116S/F117P) (protein)
chain: MENTLVLYPAPGIGHMISMLELAKLILRHYSNKFSRIHILINTGFRDMKSTYLDHISSTNPSIVVHQFPFIQADLSSSLSPPAIGFKFIRKNAPNVHHALQEISKTSSIRALIIDSPCTSAMPYSNNLGIPVYYFFTSGAAMVALFLYFPTIHKQTSESFKDLVQTKFDVPGLPPIPATQMPEPVLDRDDPAYDDILYYSVHLPKSSGIIVNTFDELEPIALKAITDGLCVPDAPTPPLYNIGPLIADADSRPAIDGDKGIDLDQSDCFSWLDRQPDQCVVFLCFGSRGTFSVEQIKEIAKGLERSGKRFLWVVKKPLRNNKSKQVEGSGGFEIDSILPERFLEKTKGIGLVVKSWIPQLQVLRHPAVGGFVTHCGWNSTLEAVVAGVPLVAWPLHAEQHVNMAALVQDMKMAIPVEQGDDGIVRGEEVEKRVRELMDSERGRELRKLSQKTRDIAAESGVHLGSSSTALASLIHVVFGN
[2]
  Km: 0.012 ± 0.0005 mM
  kcat: 0.021 ± 0.00007 min⁻¹

B2: FcCGT (Citrus japonica; A189D/T149Q) (protein)
chain: MSDSGGFDSHPHVALIPSAGMGHLTPFLRLAASLVQHHCRVTLITTYPTVSLAETQHVSHFLSAYPQVTEKRFHLLPFDPNSANATDPFFLRWEAIRRSAHLLAPLLSPPLSALITDVTLISAVLPVTINLHLPNYVLFTASARMFSLQASFPAIVASKSTSSGSVEFDDDFIEIPGLPPIPLSSVPPDVMDSKSLFATSFLENGNSFVKSNGVLINSFDALEADTLVALNGRRVVAGLPPVYAVGPLLPCEFEKRDDPSTSLILKWLDDQPEGSVVYVSFGSRLALSMEQTKELGNGLLSSGCRFLWVVKGKTVDKEDEESLKNVLGHELMEKIKDQGLVVKNWVDQDKVLSHRAVGGFVSHGGWNSLVEAARHGVPVLVWPQFGDQKINAEAVESAGLGMWVRSWGWGTELRAKGDEIGLKIKDLMANDFLREQAKRIEEEARKAIGVGGSSERTFKELIDKWKCNNNTH
Purified protein
  Km: 0.375 ± 0.072 mM
  kcat: 2.445 ± 0.096 min⁻¹

B3: FcCGT (Citrus japonica; M145A/V118D) (protein)
chain: B2 chain with V118D, M145A, Q149T, D189A
[3]
  Km: 1.064 ± 0.151 mM
  kcat: 3.194 ± 0.131 min⁻¹

B4: NnGT (Nelumbo nucifera; C156Q/L197D/S126P) (protein)
chain: MEMSSSSDLQILPPHVALLPSSGMGHLVPFVRLAAALARRNCLVTFITTHPTVSLSESRLVSRLLSAFPHVTPLEFHLLPLDHSTANSKDPFFLQFEAIRRSAHLLSPLLSSCSDPPLSALITDVPLASAFISITDELRLPNYILFTSSAWMLSLQLNFPTFVVNTSTNLSGGSATASDDIEIPGVPPVPKSWLPPDLLDLSNLFTTQFMANGQELIKSNGILINTFGNAEQATVAALNEGKVVNGLPPVTKIGPLAPCEFEKGSSVEWLDGQPAGSVLYVSFGSRTAMSREQIRELGDGLVRSGCRFLWVVKDKKVDREDEEELGGIVGQELMERMKDNGLVVKNWVDQGVVLAHPAVGGFLSHCGWNSVTEAAWNGVPVLAWPQHGDQSINAQVMEKSGIGMWVKSWGWGRTEVVKGEEIGQKIGEMMGNDRLKAQAANIREESRRAVEVGGGSYKELEGIIEKWKISRI
[4]
  Km: 0.319 ± 0.061 mM
  kcat: 0.523 ± 0.034 min⁻¹
